Test results published in patent US20120316071A1 (published 2012).
Residue numbers refer to the chain shown, from its start. Names and notes keep the numbering of the source.

T1: rHuman Erythropoietin R/Fc Chimera, CF (R&D Systems Cat#963-ER) (human, UniProt P19235 25-250)
T1 construct: Bought recombinant Fc chimera; also called EPO R; EPO R/Fc; not shown: Fc of the bought R&D Systems chimera
T1 sequence (looked up): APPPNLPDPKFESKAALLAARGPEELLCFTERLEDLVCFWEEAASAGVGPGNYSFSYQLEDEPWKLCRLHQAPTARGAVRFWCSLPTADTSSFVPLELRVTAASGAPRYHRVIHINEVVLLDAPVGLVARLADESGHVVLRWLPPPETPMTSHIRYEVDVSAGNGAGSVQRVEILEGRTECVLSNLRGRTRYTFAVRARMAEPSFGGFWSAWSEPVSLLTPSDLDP

T2: rHuman Erythropoietin R/Fc Chimera, CF (R&D Systems Cat#963-ER) (human, UniProt P19235 25-250)
T2 construct: Bought reagent; also called EPO R; Epo R/Fc
T2 sequence (looked up): T1 sequence (looked up)

B1: Fab VH1-46_IGHD6-6*01_IGHJ1*01 S103A & L6_IGKJ1*01 (Fab, V domains shown)
VH: QVQLVQSGAEVKKPGASVKVSCKASGYTFTSYYMHWVRQAPGQGLEWMGIINPSGGSTSYAQKFQGRVTMTRDTSTSTVYMELSSLRSEDTAVYYCAREEYSASSAEYFQHWGQGTLVTVSS
VL: not shown
notes: Fab made in E. coli; The heavy chain variable region was cloned into Plasmid A (CH1, His6 and Flag tags) and the kappa light chain variable region into Plasmid C (kappa CL)
B2: Fab VH1-46_IGHD6-6*01_IGHJ1*01 S102A/S103P/S104F (APF) & L6_IGKJ1*01 R24G/Q27L (Fab, V domains shown)
VH: B1 VH with S102A, A103P, S104F
VL: EIVLTQSPATLSLSPGERATLSCGASLSVSSYLAWYQQKPGQAPRLLIYDASNRATGIPARFSGSGSGTDFTLTISSLEPEDFAVYYCQQRSNWPPWTFGQGTKVEIKR
notes: Double mutant that arose inadvertently in the PCR; Fab format as for the parent (CH1 with His6/Flag tags, kappa CL); also called APF / R24G/Q27L
B3: Fab VH1-46_IGHD6-6*01_IGHJ1*01 S102A/S103P/S104F/H111F/G56A & L6_IGKJ1*01 S28N/S30D/S31H (Fab, V domains shown)
VH: B1 VH with G56A, S102A, A103P, S104F, H111F
VL: B2 VL with G24R, L27Q, S28N, S30D, S31H
notes: also called H:APFF G56A & L:NDH
B4: Fab VH1-46_IGHD6-6*01_IGHJ1*01 S103P & L6_IGKJ1*01 (Fab, V domains shown)
VH: B1 VH with A103P
VL: not shown
notes: as for B1
B5: Fab VH1-46_IGHD6-6*01_IGHJ1*01 S102A/S103P/S104F/H111F/S54A & L6_IGKJ1*01 S28N/S30D/S31H (Fab, V domains shown)
VH: B1 VH with S54A, S102A, A103P, S104F, H111F
VL: B2 VL with G24R, L27Q, S28N, S30D, S31H
notes: also called H:APFF S54A & L:NDH
B6: Fab VH1-46_IGHD6-6*01_IGHJ1*01 S102A/S103P/S104F (APF) & L6_IGKJ1*01 Y32V (Fab, V domains shown)
VH: B1 VH with S102A, A103P, S104F
VL: B2 VL with G24R, L27Q, Y32V
notes: Fab format as for the parent (CH1 with His6/Flag tags, kappa CL); also called APF / Y32V
B7: Fab VH1-46_IGHD6-6*01_IGHJ1*01 S104H & L6_IGKJ1*01 (Fab, V domains shown)
VH: B1 VH with A103S, S104H
VL: not shown
notes: as for B1
B8: Fab VH1-46_IGHD6-6*01_IGHJ1*01 S102A/S103P/S104F/H111F & L6_IGKJ1*01 S28N/S30D/S31H (Fab, V domains shown)
VH: B1 VH with S102A, A103P, S104F, H111F
VL: B2 VL with G24R, L27Q, S28N, S30D, S31H
notes: Tested as a Fab expressed in E. coli; also called H:APFF & L:NDH; APFF-NDH

Columns and labels:
[1] = target: T3, Recombinant Human DLL4 (R&D Systems Cat#1506-D4/CF) (human, UniProt Q9NR61 27-524); test: ECL Multispot (MSD), antigen spotted on plate, Fab 0.1 uM;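 also: ratio compares each antigen's electrochemiluminescence to the blank within the same well, with a ratio of at least 4 counted as a binding Fab hit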
T3 construct: Bought recombinant protein; also called delta-like protein 4; rHuman DLL4

[2] = target: T4, rHuman Notch-1/Fc Chimera, CF (R&D Systems Cat#3647-TK) (human, UniProt P46531 19-526); test: as above
T4 construct: Bought recombinant Fc chimera; not shown: Fc of the bought R&D Systems chimera

[3] = target: T5, rHuman P-Cadherin/Fc Chimera, CF (R&D Systems Cat#861-PC) (human, UniProt P22223 108-654); test: as above
T5 construct: Bought recombinant Fc chimera; not shown: Fc of the bought R&D Systems chimera

[4] = target: T6, rHuman EGF R/Fc Chimera, CF (R&D Systems Cat#344-ER) (human, UniProt P00533 25-645); test: as above
T6 construct: Bought recombinant Fc chimera; not shown: Fc of the bought R&D Systems chimera

[5] = target: T7, rHuman CD44/Fc Chimera, CF (R&D Systems Cat#3660-CD) (human, UniProt P16070 21-220); test: as above
T7 construct: Bought recombinant Fc chimera; not shown: Fc of the bought R&D Systems chimera

[6] = target: T1, rHuman Erythropoietin R/Fc Chimera, CF …; test: as above
[7] = target: T8, rHuman HGF R/c-MET/Fc Chimera, CF (R&D Systems Cat#358-MT/CF) (human, UniProt P08581 25-932); test: as above
T8 construct: Bought recombinant Fc chimera; also called HGF R/Fc; not shown: Fc of the bought R&D Systems chimera

[8] = target: T9, rHuman IGF-1 sR, CF (R&D Systems Cat#391-GR) (human, UniProt P08069 31-932); test: as above
T9 construct: Bought recombinant soluble receptor; also called insulin-like growth factor-1 soluble receptor

[9] = target: T10, rHuman ErbB2/Fc Chimera, CF (R&D Systems Cat#1129-ER) (human, UniProt P04626 23-652); test: as above
T10 construct: Bought recombinant Fc chimera; not shown: Fc of the bought R&D Systems chimera

[10] = target: T3, Recombinant Human DLL4 (R&D Systems …); test: ECL Multispot (MSD), antigen spotted on plate, Fab 0.01 uM;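 also: electrochemiluminescence of each antigen spot divided by the blank of the same well, with a value of 4 or above scoring the Fab as a binding hit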
[11] = target: T4, rHuman Notch-1/Fc Chimera, CF (R&D …); test: as above
[12] = target: T5, rHuman P-Cadherin/Fc Chimera, CF (R&D …); test: as above
[13] = target: T6, rHuman EGF R/Fc Chimera, CF (R&D …); test: as above
[14] = target: T7, rHuman CD44/Fc Chimera, CF (R&D Systems …); test: as above
[15] = target: T1, rHuman Erythropoietin R/Fc Chimera, CF …; test: as above
[16] = target: T8, rHuman HGF R/c-MET/Fc Chimera, CF (R&D …); test: as above
[17] = target: T9, rHuman IGF-1 sR, CF (R&D Systems …); test: as above
[18] = target: T10, rHuman ErbB2/Fc Chimera, CF (R&D …); test: as above
[19] = target: T11, rHuman CD44/Fc Chimera, CF (R&D Systems Cat#3660-CD) (human, UniProt P16070 21-220); test: ECL Multispot (MSD) assay; antigen spotted on plate, Fab in solution;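 also: fab bound 1 h at 20 °C, detected by TAG-labelled antibody electrochemiluminescence, signal relative to each well's blank, ratio of 4 or more marks a hit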
T11 construct: Bought reagent

[20] = target: T12, rHuman ErbB2/Fc Chimera, CF (R&D Systems Cat#1129-ER) (human, UniProt P04626 23-652); test: as above
T12 construct: Bought reagent; also called human epidermal growth factor 2 receptor

[21] = target: T2, rHuman Erythropoietin R/Fc Chimera, CF …; test: as above
[22] = target: T13, rHuman Notch-1/Fc Chimera, CF (R&D Systems Cat#3647-TK) (human, UniProt P46531 19-526); test: as above
T13 construct: Bought reagent

[23] = target: T14, rHuman IGF-1 sR, CF (R&D Systems Cat#391-GR) (human, UniProt P08069 31-932); test: as above
T14 construct: Bought soluble receptor; the column head 'IGF-1' means IGF-1 sR; also called insulin-like growth factor-1 soluble receptor

[24] = target: T15, rHuman HGF R/c-MET/Fc Chimera, CF (R&D Systems Cat#358-MT/CF) (human, UniProt P08581 25-932); test: as above
T15 construct: Bought reagent; also called HGF R/Fc; hepatocyte growth factor receptor

[25] = target: T16, rHuman P-Cadherin/Fc Chimera, CF (R&D Systems Cat#861-PC) (human, UniProt P22223 108-654); test: as above
T16 construct: Bought reagent

[26] = target: T17, rHuman EGF R/Fc Chimera, CF (R&D Systems Cat#344-ER) (human, UniProt P00533 25-645); test: as above
T17 construct: Bought reagent; also called epidermal growth factor receptor

[27] = target: T18, Recombinant Human DLL4 (delta-like protein 4) (human, UniProt Q9NR61 27-524); test: 96-well plate ECL (MSD) assay, DLL4 immobilised, Fab at 10 nM
T18 construct: also called rHuman DLL4; Delta-like 4

[28] = target: T18, Recombinant Human DLL4 (delta-like …); test: ELISA, DLL4 coated on the plate, Fab at 100 nM, absorbance at 450 nm

Binder	ECL signal/noise ratio [1]	ECL signal/noise ratio [2]	ECL signal/noise ratio [3]	ECL signal/noise ratio [4]	ECL signal/noise ratio [5]	ECL signal/noise ratio [6]	ECL signal/noise ratio [7]	ECL signal/noise ratio [8]	ECL signal/noise ratio [9]	ECL signal/noise ratio [10]	ECL signal/noise ratio [11]	ECL signal/noise ratio [12]	ECL signal/noise ratio [13]	ECL signal/noise ratio [14]	ECL signal/noise ratio [15]	ECL signal/noise ratio [16]	ECL signal/noise ratio [17]	ECL signal/noise ratio [18]	ECL Signal [10 nM Fab] [27]	ELISA Signal [100 nM Fab] [28]	other results
B1	31.6	1.2	1.4	1.2	1.4	1.4	1	1.2	1	4.5	1.4	1.3	1.3	1.3	1.1	1.2	1.1	0.9			
B2																					ECL signal [19]: 119; ECL signal [20]: 225; ECL signal [21]: 191; ECL signal [22]: 177; ECL signal [23]: 49; ECL signal [24]: 185; ECL signal [25]: 236; ECL signal [26]: 252
B3																			71600	0.2	
B4	139	2.6	1.4	2.3	2.1	2.4	1.9	2	2.2	22.9	1.8	1.1	1.8	1.5	1.8	1.2	1	2			
B5																			46700	0.08	
B6																					ECL signal [19]: 120; ECL signal [20]: 156; ECL signal [21]: 144; ECL signal [22]: 56; ECL signal [23]: 151; ECL signal [24]: 283; ECL signal [25]: 186; ECL signal [26]: 57
B7	88.3	0.8	0.8	0.6	1.1	1	0.8	1	1	27	1.4	1	1	1.4	1.2	1	1.5	1			
B8																			49000	0.08	
